Test results from patent US20180273587A1 (AILERON THERAPEUTICS, published 2018).
Starred links: 1 amine or outer side, 2 acyl side, 3 side chain; linkers in the order of their positions; H or OH if unused. Positions of bridges follow the written chain, without caps; N, C: chain ends. Non-standard residues stand in square brackets, D forms with d. St = two pentenyl-alanine olefin side chains, each crosslinked to another residue (stitch), C=CCCCC(CCCC=C)(N[*:1])C(=O)[*:2]; Phe(4-F) = N[C@@H](Cc1ccc(F)cc1)C(=O)O; 2Nal = N[C@@H](Cc1ccc2ccccc2c1)C(=O)O; hPhe = N[C@@H](CCc1ccccc1)C(=O)O; R8 = C=CCCCCCC[C@@](C)(N)C(=O)O; Cha = N[C@@H](CC1CCCCC1)C(=O)O; S8 = C=CCCCCCC[C@](C)(N)C(=O)O; S5 = C=CCCC[C@](C)(N)C(=O)O

B1: SEQ ID NO: 1758 (peptide)
peptide: Ac-IWIAQALR[R8]IGDAFN[S5]YWA-NH2
modifications: staple 9-16
SMILES: CC[C@H](C)[C@H](NC(C)=O)C(=O)N[C@@H](Cc1c[nH]c2ccccc12)C(=O)N[C@H](C(=O)N[C@@H](C)C(=O)N[C@@H](CCC(N)=O)C(=O)N[C@@H](C)C(=O)N[C@@H](CC(C)C)C(=O)N[C@@H](CCCNC(=N)N)C(=O)N[C@]1(C)CCCCCCC=CCCC[C@@](C)(C(=O)N[C@@H](Cc2ccc(O)cc2)C(=O)N[C@@H](Cc2c[nH]c3ccccc23)C(=O)N[C@@H](C)C(N)=O)NC(=O)[C@H](CC(N)=O)NC(=O)[C@H](Cc2ccccc2)NC(=O)[C@H](C)NC(=O)[C@H](CC(=O)O)NC(=O)CNC(=O)[C@H]([C@@H](C)CC)NC1=O)[C@@H](C)CC
B2: SEQ ID NO: 1782 (peptide)
peptide: Ac-I[R8]IAQALR[St]IGDEFN[S8]YYA-NH2
modifications: staple 9-16, 2-9
notes: Row prints Ac-I$r8IAQALRStIGDEFN$s8YYA-NH2
B3: SEQ ID NO: 1754 (peptide)
peptide: Ac-IWIAQALR[R8]IGDAFN[S5]YAA-NH2
modifications: staple 9-16
SMILES: CC[C@H](C)[C@H](NC(C)=O)C(=O)N[C@@H](Cc1c[nH]c2ccccc12)C(=O)N[C@H](C(=O)N[C@@H](C)C(=O)N[C@@H](CCC(N)=O)C(=O)N[C@@H](C)C(=O)N[C@@H](CC(C)C)C(=O)N[C@@H](CCCNC(=N)N)C(=O)N[C@]1(C)CCCCCCC=CCCC[C@@](C)(C(=O)N[C@@H](Cc2ccc(O)cc2)C(=O)N[C@@H](C)C(=O)N[C@@H](C)C(N)=O)NC(=O)[C@H](CC(N)=O)NC(=O)[C@H](Cc2ccccc2)NC(=O)[C@H](C)NC(=O)[C@H](CC(=O)O)NC(=O)CNC(=O)[C@H]([C@@H](C)CC)NC1=O)[C@@H](C)CC
B4: SEQ ID NO: 1769 (peptide)
peptide: Ac-IWIAQALR[R8]IGDAFN[S5][Phe(4-F)]YA-NH2
modifications: staple 9-16
SMILES: CC[C@H](C)[C@H](NC(C)=O)C(=O)N[C@@H](Cc1c[nH]c2ccccc12)C(=O)N[C@H](C(=O)N[C@@H](C)C(=O)N[C@@H](CCC(N)=O)C(=O)N[C@@H](C)C(=O)N[C@@H](CC(C)C)C(=O)N[C@@H](CCCNC(=N)N)C(=O)N[C@]1(C)CCCCCCC=CCCC[C@@](C)(C(=O)N[C@@H](Cc2ccc(F)cc2)C(=O)N[C@@H](Cc2ccc(O)cc2)C(=O)N[C@@H](C)C(N)=O)NC(=O)[C@H](CC(N)=O)NC(=O)[C@H](Cc2ccccc2)NC(=O)[C@H](C)NC(=O)[C@H](CC(=O)O)NC(=O)CNC(=O)[C@H]([C@@H](C)CC)NC1=O)[C@@H](C)CC
B5: SEQ ID NO: 1775 (peptide)
peptide: Ac-IWIAQALR[R8]IGDAFN[S5]AYA-NH2
modifications: staple 9-16
SMILES: CC[C@H](C)[C@H](NC(C)=O)C(=O)N[C@@H](Cc1c[nH]c2ccccc12)C(=O)N[C@H](C(=O)N[C@@H](C)C(=O)N[C@@H](CCC(N)=O)C(=O)N[C@@H](C)C(=O)N[C@@H](CC(C)C)C(=O)N[C@@H](CCCNC(=N)N)C(=O)N[C@]1(C)CCCCCCC=CCCC[C@@](C)(C(=O)N[C@@H](C)C(=O)N[C@@H](Cc2ccc(O)cc2)C(=O)N[C@@H](C)C(N)=O)NC(=O)[C@H](CC(N)=O)NC(=O)[C@H](Cc2ccccc2)NC(=O)[C@H](C)NC(=O)[C@H](CC(=O)O)NC(=O)CNC(=O)[C@H]([C@@H](C)CC)NC1=O)[C@@H](C)CC
B6: SEQ ID NO: 1759 (peptide)
peptide: Ac-IWIAQALR[R8]IGDAFN[S5]Y[2Nal]A-NH2
modifications: staple 9-16
SMILES: CC[C@H](C)[C@H](NC(C)=O)C(=O)N[C@@H](Cc1c[nH]c2ccccc12)C(=O)N[C@H](C(=O)N[C@@H](C)C(=O)N[C@@H](CCC(N)=O)C(=O)N[C@@H](C)C(=O)N[C@@H](CC(C)C)C(=O)N[C@@H](CCCNC(=N)N)C(=O)N[C@]1(C)CCCCCCC=CCCC[C@@](C)(C(=O)N[C@@H](Cc2ccc(O)cc2)C(=O)N[C@@H](Cc2ccc3ccccc3c2)C(=O)N[C@@H](C)C(N)=O)NC(=O)[C@H](CC(N)=O)NC(=O)[C@H](Cc2ccccc2)NC(=O)[C@H](C)NC(=O)[C@H](CC(=O)O)NC(=O)CNC(=O)[C@H]([C@@H](C)CC)NC1=O)[C@@H](C)CC
B7: SEQ ID NO: 1783 (peptide)
peptide: Ac-IWIA[S5]ALR[St]IGDEFN[S8]YYA-NH2
modifications: staple 9-16, 5-9
notes: Row prints Ac-IWIA$ALRStIGDEFN$s8YYA-NH2
B8: SEQ ID NO: 1757 (peptide)
peptide: Ac-IWIAQALR[R8]IGDAFN[S5]Y[hPhe]A-NH2
modifications: staple 9-16
SMILES: CC[C@H](C)[C@H](NC(C)=O)C(=O)N[C@@H](Cc1c[nH]c2ccccc12)C(=O)N[C@H](C(=O)N[C@@H](C)C(=O)N[C@@H](CCC(N)=O)C(=O)N[C@@H](C)C(=O)N[C@@H](CC(C)C)C(=O)N[C@@H](CCCNC(=N)N)C(=O)N[C@]1(C)CCCCCCC=CCCC[C@@](C)(C(=O)N[C@@H](Cc2ccc(O)cc2)C(=O)N[C@@H](CCc2ccccc2)C(=O)N[C@@H](C)C(N)=O)NC(=O)[C@H](CC(N)=O)NC(=O)[C@H](Cc2ccccc2)NC(=O)[C@H](C)NC(=O)[C@H](CC(=O)O)NC(=O)CNC(=O)[C@H]([C@@H](C)CC)NC1=O)[C@@H](C)CC
B9: SEQ ID NO: 1755 (peptide)
peptide: Ac-IWIAQALR[R8]IGDAFN[S5]YLA-NH2
modifications: staple 9-16
SMILES: CC[C@H](C)[C@H](NC(C)=O)C(=O)N[C@@H](Cc1c[nH]c2ccccc12)C(=O)N[C@H](C(=O)N[C@@H](C)C(=O)N[C@@H](CCC(N)=O)C(=O)N[C@@H](C)C(=O)N[C@@H](CC(C)C)C(=O)N[C@@H](CCCNC(=N)N)C(=O)N[C@]1(C)CCCCCCC=CCCC[C@@](C)(C(=O)N[C@@H](Cc2ccc(O)cc2)C(=O)N[C@@H](CC(C)C)C(=O)N[C@@H](C)C(N)=O)NC(=O)[C@H](CC(N)=O)NC(=O)[C@H](Cc2ccccc2)NC(=O)[C@H](C)NC(=O)[C@H](CC(=O)O)NC(=O)CNC(=O)[C@H]([C@@H](C)CC)NC1=O)[C@@H](C)CC
B10: SEQ ID NO: 1756 (peptide)
peptide: Ac-IWIAQALR[R8]IGDAFN[S5]Y[Cha]A-NH2
modifications: staple 9-16
SMILES: CC[C@H](C)[C@H](NC(C)=O)C(=O)N[C@@H](Cc1c[nH]c2ccccc12)C(=O)N[C@H](C(=O)N[C@@H](C)C(=O)N[C@@H](CCC(N)=O)C(=O)N[C@@H](C)C(=O)N[C@@H](CC(C)C)C(=O)N[C@@H](CCCNC(=N)N)C(=O)N[C@]1(C)CCCCCCC=CCCC[C@@](C)(C(=O)N[C@@H](Cc2ccc(O)cc2)C(=O)N[C@@H](CC2CCCCC2)C(=O)N[C@@H](C)C(N)=O)NC(=O)[C@H](CC(N)=O)NC(=O)[C@H](Cc2ccccc2)NC(=O)[C@H](C)NC(=O)[C@H](CC(=O)O)NC(=O)CNC(=O)[C@H]([C@@H](C)CC)NC1=O)[C@@H](C)CC

How the values were obtained:
Test in all cases: Ki; method not stated; unit not printed (nM per Table 6)
MCL-1 = molecular target: T1, MCL-1 (UniProt Q07820 172-327, limits assumed)
T1 construct: Target of the Ki columns; also called Myeloid cell leukemia 1
T1 sequence (Q07820 172-327 limits assumed): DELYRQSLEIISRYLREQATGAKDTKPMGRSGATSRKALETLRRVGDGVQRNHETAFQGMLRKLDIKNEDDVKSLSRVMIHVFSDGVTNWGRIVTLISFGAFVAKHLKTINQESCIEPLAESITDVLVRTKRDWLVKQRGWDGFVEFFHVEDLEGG

BCL-2 = molecular target: T2, BCL-2 (UniProt P10415 1-217, limits assumed)
T2 construct: Target of the Ki columns
T2 sequence (P10415 1-217 limits assumed): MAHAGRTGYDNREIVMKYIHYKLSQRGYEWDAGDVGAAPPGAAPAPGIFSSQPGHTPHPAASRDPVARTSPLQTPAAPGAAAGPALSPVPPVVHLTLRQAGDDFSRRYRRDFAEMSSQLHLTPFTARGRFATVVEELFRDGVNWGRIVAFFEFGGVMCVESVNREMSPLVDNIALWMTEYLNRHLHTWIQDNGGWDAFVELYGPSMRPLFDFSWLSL

BCL-XL = molecular target: T3, BCL-XL (UniProt Q07817 1-209)
T3 construct: Target of the Ki columns
T3 sequence (Q07817 1-209): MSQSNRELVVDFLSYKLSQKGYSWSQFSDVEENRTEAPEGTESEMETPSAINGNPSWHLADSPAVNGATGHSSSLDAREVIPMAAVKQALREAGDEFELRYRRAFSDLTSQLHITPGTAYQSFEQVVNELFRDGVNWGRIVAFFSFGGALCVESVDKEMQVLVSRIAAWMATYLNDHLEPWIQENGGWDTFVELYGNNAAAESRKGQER

| Binder | Ki (MCL-1) | Ki (BCL-2) | Ki (BCL-XL) |
| --- | --- | --- | --- |
| IWIAQALRAIGDAANAYYA (N-terminal Ac; $r8 at 9 and $ at 16 (crosslinked); 2Nal at 14; C-terminal NH2) [SEQ ID NO: 1746] | 4.4 nM | 35.1 nM | 19.1 nM |
| B1 | 3.9 nM | 23.5 nM | 15.4 nM |
| B2 | 1.1 nM | 22 nM | 1.1 nM |
| B3 | 20.3 nM | 102 nM | 51.8 nM |
| B4 | 14.9 nM | 200 nM | 26 nM |
| B5 | 5.3 nM | 112 nM | 12.6 nM |
| B6 | 8 nM | 65.2 nM | 26.1 nM |
| B7 | 1.6 nM | 19.2 nM | 1.6 nM |
| B8 | 8 nM | 30.7 nM | 12.1 nM |
| B9 | 23.4 nM | 18.9 nM | 9 nM |
| B10 | 24.1 nM | 28.9 nM | 8.6 nM |
